Test results published in patent US20040265972A1 (published 2004).

Molecular target: T1, human TSH receptor stably expressed on Chinese Hamster Ovary (CHO) cells (CHO-hTSHR clone JP09 and clone JP26) (human, UniProt P16473 21-764)
T1 construct: whole, on cells; also called hTSH receptor; CHO-JPO9
Assay: told in words; bioactivity assay on CHO-JPO9 cells expressing the TSH receptor

binding result: binds
B1: mutant TSH heterodimer of wild type human common α-subunit and mutant human TSH-β subunit βE6N (ligand)
alpha: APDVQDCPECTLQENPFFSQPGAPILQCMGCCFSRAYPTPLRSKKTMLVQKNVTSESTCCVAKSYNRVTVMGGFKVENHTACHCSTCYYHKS
beta: FCIPTNYTMHIERRECAYCLTINTTICAGYCMTRDINGKLFLPKYALSQDVCTYRDFIYRTVEIPGCPLHVAPYFSYPVALSCKCGKCNTDYSDCIHEAIKTNYCTKPQKSYLVGFSV
modifications: Both subunits are N-glycosylated (secreted from CHO-K1 cells). They form a noncovalent heterodimer. The letters carry neither feature.
notes: Transiently expressed in CHO-K1 cells
